Laboratory results reported in patent US10184137B2, “Method of producing isoprene monomer” (AJINOMOTO CO., INC., priority 2014, dated 2019).
Several values for one entry are separate records, joined by “and”; a condition that tells them apart may be missing. Identical values can stand only once.

Legend:
[1] = HPLC verification of prepared potassium mevalonate after frozen storage; details: HPLC peak area versus lithium mevalonate standard; stored at −20° C.
Experimental: The mixed solution was then incubated at 37° C. for 2 hours. After incubation, pH of the solution was adjusted to 8.0 by neutralization with hydrochloric acid.
HPLC used for the verification was HITACH High-Performance Liquid Chromatography (L-2000). HPLC was performed by using YMC-Pack ODS-A (150×4.6 mm I.D.: YMC CO., LTD.) as stationary phase and phosphoric acid (pH2.5) as mobile phase. Detection was performed at 210 nm.

[2] = target: Nitrosopumilus maritimus mevalonate kinase (nmr), wild type, SEQ ID NO:9, N-terminal His-tag (Nitrosopumilus maritimus, UniProt A9A427); assay: Examination of product inhibition on nmr-derived mevalonate kinase; assay type: biochemical; details: 1 mM mevalonate as substrate, 50 mM ATP
[3] = substrate: Nc1ncnc2c1ncn2[C@@H]1O[C@H](COP(=O)(O)OP(=O)(O)OP(=O)(O)O)[C@@H](O)[C@H]1O; assay: purified protein, by the assay type; details: other: mcl, 5 mM potassium mevalonate, pH 7.6, 30° C., Lineweaver-Burk plot
Experimental: Each obtained plasmid was used for transformation of E. coli BL21(DE3). […] When OD600 reached approximately 0.5, 0.1 mM IPTG (for cva, mma, nmr, and sce) or 1 mM (for mcl and mpd) of IPTG was added, and then the mixture was kept at 20° C. overnight to induce the target protein. […] After centrifugation (28,000×g, 30 min), the supernatant was adsorbed onto His-Trap HP (GE Healthcare) to elute the target protein by linear concentration gradient of Imidazol (final concentration 0.5 M). Obtained protein was dialyzed by using an external solution composed of 20 mM Tris-HCl (pH 8.0) containing 1 mM DTT and 50 mM NaCl. Dialyzed protein was designated as purified enzyme. Protein quantity was measured with Bio-RAD protein assay kit and BSA standard condition.
Decrease in absorbance at 340 nm at 30° C. was measured to determine the enzyme activity. JASCO Corporation's spectrophotometer (V-650) was used in this study. […] Km value was calculated by Lineweaver-Burk plot.

[4] = tested on: mevalonate kinase; assay: Expression analysis and activity confirmation of His-tagged mevalonate kinases from pET-21a(+) and pET-28b(+); assay type: biochemical; details: His-spinTrap eluate after dialysis, 10 μl enzyme solution
Experimental: Each obtained plasmid was used for transformation of E. coli BL21(DE3). […] When OD600 reached approximately 0.5, IPTG was added to the solution to final concentration of 1 mM. It was then cultured overnight at 20° C. Harvested cells were suspended in the buffer solution consisting of 50 mM sodium phosphate, 0.3 M NaCl and 20 mM Imidazol. Then the cells were disrupted with an ultrasonic disruptor (TOMY: UD-201, output level=3.5). After centrifugation (20,000×g, 20 min), disrupted cells were adsorbed to His-spinTrap (GE Healthcare). After washing with the same buffer solution, protein was eluted with the buffer solution consisting of 50 mM sodium phosphate, 0.3 M NaCl and 0.5 M imidazole (pH7.5). Eluate was dialyzed overnight at 4° C. with the external solution composed of 20 mM Tris-HCl (pH7.5) and 50 mM NaCl. Then, enzyme activity of each eluate in the internal dialysis solution was measured.
Activity of the internal dialysate (about 0.2 ml each) was measured with the 10 μl of enzyme solution (Table 8). Enzyme expression level was compared on activity basis between pET-21a(+) and pET-28b(+). […] It is inferred that expression level is higher in pET-28b(+). Therefore, purified enzyme expressed in pET-28b(+) was used in the further examinations.
Values were presented by decrease in absorbance per unit time per 10 μl in the enzyme reaction measurement system (dABS/min/10 μl).
(§1) Decrease in absorbance at 340 nm at 30° C. was measured to determine the enzyme activity. JASCO Corporation's spectrophotometer (V-650) was used in this study. Millimolar extinction coefficient of NADH used in this study was 6.22 mM^−1 cm^−1. […] Km value was calculated by Lineweaver-Burk plot.

[5] = tested on: mevalonate kinase; assay: Measurement of activity and Km value of purified mevalonate kinase (PK/LDH coupled, 340 nm); assay type: biochemical
Experimental: (§2) Each obtained plasmid was used for transformation of E. coli BL21(DE3). […] When OD600 reached approximately 0.5, 0.1 mM IPTG (for cva, mma, nmr, and sce) or 1 mM (for mcl and mpd) of IPTG was added, and then the mixture was kept at 20° C. overnight to induce the target protein. Harvested cells were suspended in buffer solution A (50 mM sodium phosphate, 0.3 M NaCl and 20 mM Imidazol), and then the cells were disrupted with an ultrasonic disruptor (TOMY: UD-201). […] After centrifugation (28,000×g, 30 min), the supernatant was adsorbed onto His-Trap HP (GE Healthcare) to elute the target protein by linear concentration gradient of Imidazol (final concentration 0.5 M). Obtained protein was dialyzed by using an external solution composed of 20 mM Tris-HCl (pH 8.0) containing 1 mM DTT and 50 mM NaCl. Dialyzed protein was designated as purified enzyme. Protein quantity was measured with Bio-RAD protein assay kit and BSA standard condition.
as §1
(§3) Measured activity of each enzyme (JABS/min) was presented on Table 9 for the calculation of apparent Km value (Km app.) of each enzyme. Table 10 presents Km app., Vmax, molecular weight of the enzyme protein, protein concentration in the enzyme solution and calculated kcat.
Activity was indicated by dABS/min when 10 μl of each enzyme was added to 1 ml of reaction solution.

[6] = tested on: mevalonate kinase; assay: Inhibition of each mevalonate kinase by DMAPP, GPP, FPP or DPM; assay type: biochemical
Experimental: Since GPP and FPP solutions contain methanol, methanol which was needed to keep the same methanol level at the addition to the reaction system was added to the reaction solution, which was designated as control.
Respective effect of the added 5 mM DMAPP, 0.1 mM GPP, and 0.1 mM FPP on the activity of each enzyme was measured. […] Contrarily, mcl-derived enzyme was activated by 5 mM DMAPP and its activity increased by 20% from that of the control.
Activity when 10 μl of each enzyme was added to 1 ml of the reaction system was represented by dABS/min
Effect of 1 mM diphosphomevalonate (DPM) on each enzyme was also studied.

[7] = tested on: mevalonate kinase; assay: Examination of product inhibition on each mevalonate kinase (absorbance at 386 nm, PMK addition); assay type: biochemical; details: 1 mM mevalonate as substrate; in words
Experimental: When decrease in absorbance stopped, purified PMK was added to measure further decrease in absorbance at 386 nm.
FIG. 18 presents the SDS-PAGE profile of the purified PMK. […] Then, absorbance decreased further and finally absorbance at 386 nm decreased to 0.3 in all reaction systems. Therefore, it is inferred that mevalonate is converted into diphosphomevalonate via phosphomevalonate by adding PMK to each MVK.

[8] = tested on: mcl-derived mevalonate kinase; assay: Effect of IPP and low-concentration DMAPP on mcl-derived mevalonate kinase activity
[9] = substrate: Nc1ncnc2c1ncn2[C@@H]1O[C@H](COP(=O)(O)OP(=O)(O)OP(=O)(O)O)[C@@H](O)[C@H]1O; assay: purified protein, by the assay type; assay type: biochemical, Methanosarcina mazei; details: other: mma, 5 mM potassium mevalonate, pH 7.6, 30° C., Lineweaver-Burk plot
Experimental: as §2
(§4) Decrease in absorbance at 340 nm at 30° C. was measured to determine the enzyme activity. […] Km value was calculated by Lineweaver-Burk plot.
as §3

[10] = substrate: Nc1ncnc2c1ncn2[C@@H]1O[C@H](COP(=O)(O)OP(=O)(O)OP(=O)(O)O)[C@@H](O)[C@H]1O; assay: purified protein, by the assay type; assay type: biochemical, Corynebacterium variabile; details: other: cva, 5 mM potassium mevalonate, pH 7.6, 30° C., Lineweaver-Burk plot
Experimental: as §2, §4, §3

[11] = substrate: Nc1ncnc2c1ncn2[C@@H]1O[C@H](COP(=O)(O)OP(=O)(O)OP(=O)(O)O)[C@@H](O)[C@H]1O; assay: purified protein, by the assay type; assay type: biochemical, Nitrosopumilus maritimus; details: other: nmr, 5 mM potassium mevalonate, pH 7.6, 30° C., Lineweaver-Burk plot
Experimental: as §2, §4, §3

[12] = substrate: Nc1ncnc2c1ncn2[C@@H]1O[C@H](COP(=O)(O)OP(=O)(O)OP(=O)(O)O)[C@@H](O)[C@H]1O; assay: purified protein, by the assay type; assay type: biochemical, Saccharomyces cerevisiae; details: other: sce, 5 mM potassium mevalonate, pH 7.6, 30° C., Lineweaver-Burk plot
Experimental: as §2, §4, §3

## C[C@@](O)(CCO)CC(=O)[O-].[K+] [potassium mevalonate]
[1]
  stability after frozen storage: stable

## C[C@@](O)(CCOP(=O)(O)O)CC(=O)O [phosphomevalonate, mevalonate-5-phosphate]
[2]
  Product inhibition: may cause product inhibition

B1: Methanosaeta concilii mevalonate kinase (mcl), wild type, SEQ ID NO:6, N-terminal His-tag (Methanothrix soehngenii GP6) (protein)
chain: MTMASAPGKIILFGEHAVVSGTAALGGAIDLRARAIVQSLPGRILIETDDLSLRGFSLDLSTGEIRSASAAYATRYVSAVLKELGARDVRVMIESDIPPAAGLGSSASIVVATVAALNGHLGLELSQKEIAALSYRIEKEVQKGRGSPMDTALATYGGYQRIADDNQRLDLPPLEMVVGYTRLPHDTFSLVEKVQLLKERYPDLVGPIFQAIGAISERAAPLIREQRLKDLGELMDINHGLLEALGVGSRELSELVYAARNTGGALGAKLTGAGGGGCMIALPGMAGKDALLVALRQARGMAFAAMMGCEGVRLEVA
[3]
  Km: 74 ± 1.4 µM

B2: mcl: mevalonate kinase derived from Methanosaeta concilii (SEQ ID NO:6), His-tagged purified enzyme (protein, listed as Methanosaeta concilii)
chain: B1 chain
modifications: His-tag
[4]
  enzyme activity, pET21 system (C terminal Tag): 0.003 dABS/min/10 μl
  enzyme activity, pET28 system (N terminal Tag): 0.023 dABS/min/10 μl
[5]; ATP 0.04 mM, potassium mevalonate 5 mM, 10 μl enzyme in 1 ml, replicate values
  dABS/min at ATP 0.04 mM: 0.06058 dABS/min and 0.06029 dABS/min and 0.05985 dABS/min
[5]; ATP 0.2 mM, potassium mevalonate 5 mM, 10 μl enzyme in 1 ml, replicate values
  dABS/min at ATP 0.2 mM: 0.1223 dABS/min and 0.1222 dABS/min (2×)
[5]; ATP 1 mM, potassium mevalonate 5 mM, 10 μl enzyme in 1 ml, replicate values
  dABS/min at ATP 1 mM: 0.1584 dABS/min (2×) and 0.1585 dABS/min
[5]; in words
  affinity to mevalonate and ATP compared with the other enzymes: higher affinity to mevalonate and ATP than the other enzymes
[5]; potassium mevalonate 0.002 mM, ATP 5 mM, 10 μl enzyme in 1 ml, replicate values
  dABS/min at mev 0.002 mM: 0.02277 dABS/min and 0.02381 dABS/min and 0.02265 dABS/min
[5]; potassium mevalonate 0.01 mM, ATP 5 mM, 10 μl enzyme in 1 ml, replicate values
  dABS/min at mev 0.01 mM: 0.08427 dABS/min and 0.0843 dABS/min and 0.08431 dABS/min
[5]; potassium mevalonate 0.04 mM, ATP 5 mM, 10 μl enzyme in 1 ml, replicate values
  dABS/min at mev 0.04 mM: 0.1675 dABS/min and 0.1677 dABS/min and 0.1671 dABS/min
[5]; potassium mevalonate 0.2 mM, ATP 5 mM, 10 μl enzyme in 1 ml, replicate values
  dABS/min at mev 0.2 mM: 0.2123 dABS/min (2×) and 0.2125 dABS/min
[6]; Table 11 control without terpenyl diphosphate (methanol added)
  enzyme activity, Control: 0.1482 dABS/min
[6]; Table 12 control without DPM
  enzyme activity, Control: 0.1373 dABS/min
[6]; in words
  effect of 5 mM DMAPP on enzyme activity: activated
[7]
  course of decrease in absorbance at 386 nm until PMK addition: almost linear decrease in absorbance
[8]; 70% methanol control for IPP
  enzyme activity, Control (MeOH): 0.1594 dABS/min
[8]; control for DMAPP
  enzyme activity, Control (H2O): 0.154 dABS/min

B3: Methanosarcina mazei mevalonate kinase (mma), wild type, SEQ ID NO:12, N-terminal His-tag (Methanosarcina mazei Go1) (protein)
chain: MVSCSAPGKIYLFGEHAVVYGETAIACAVELRTRVRAELNDSITIQSQIGRTGLDFEKHPYVSAVIEKMRKSIPINGVFLTVDSDIPVGSGLGSSAAVTIASIGALNELFGFGLSLQEIAKLGHEIEIKVQGAASPTDTYVSTFGGVVTIPERRKLKTPDCGIVIGDTGVFSSTKELVANVRQLRESYPDLIEPLMTSIGKISRIGEQLVLSGDYASIGRLMNVNQGLLDALGVNILELSQLIYSARAAGAFGAKITGAGGGGCMVALTAPEKCNQVAEAVAGAGGKVTITKPTEQGLKVD
[9]
  Km: 687 ± 9.3 µM

B4: Corynebacterium variabile mevalonate kinase (cva), wild type, SEQ ID NO:3, N-terminal His-tag (Corynebacterium variabile) (protein)
chain: MAPHVGHGQTVAKIILFGEHSVVYGHPAIAMPLRTLRMIARVEPTDGPGTLSGLGWTGPITEAPARFSSIVKAAEVASDFAGHPGAGLNISTESEFPPERGLGSSAAAAGAVIRAVLDAFDTPATPRELFDLTQEAETVAHGRPSGLDAVATSAEAPVHFQAGQATDLEFSPDAWIVIADSGVEGSTRETVGHVRGRFEAEPDIITALLNRLGEITDEVVVDLRTGDVQGMGARMTEAHGILGQLGVSNTQLDALVTASLGAGALGAKLTGGGRGGCVIALAATEEDAENVEKALVDAGARGTWVHAPATGQMAGEVMQ
[10]
  Km: 1347 ± 29^ μM

B5: Nitrosopumilus maritimus mevalonate kinase (nmr), wild type, SEQ ID NO:9, N-terminal His-tag (Nitrosopumilus maritimus SCM1) (protein)
chain: MKSKASAPGKVILFGEHFVVYGVKAILCAINKRIAVTAEKIDERKISIKSNIGHLELEPNKPISEINSPLKPFYYLANKIIQDKNFGIKIDVESEIPLGVGLGSSSACCVAGAAAISNLFENNSKEEILKLAIEAEKTIFQNTSGADCTVCTFGGLMEYDKENGFSKIESEPNFHLVIANSNVEHSTESVVAGVRKFKKNNEAEFSKLCKDESHLIENVLELLKENNIRELGERVIKNQEYLERIGISNAKLREMIQTGQNSSFGAKITGAGGGGCIFALTDESNLENTIKEFKEKNHECFSVKIDFKGLDTF
[11]
  Km: 1006 ± 20^ μM

B6: Saccharomyces cerevisiae mevalonate kinase (sce, ERG12), wild type, NP_013935.1, N-terminal His-tag (Saccharomyces cerevisiae S288C) (protein)
chain: MSLPFLTSAPGKVIIFGEHSAVYNKPAVAASVSALRTYLLISESSAPDTIELDFPDISFNHKWSINDFNAITEDQVNSQKLAKAQQATDGLSQELVSLLDPLLAQLSESFHYHAAFCFLYMFVCLCPHAKNIKFSLKSTLPIGAGLGSSASISVSLALAMAYLGGLIGSNDLEKLSENDKHIVNQWAFIGEKCIHGTPSGIDNAVATYGNALLFEKDSHNGTINTNNFKFLDDFPAIPMILTYTRIPRSTKDLVARVRVLVTEKFPEVMKPILDAMGECALQGLEIMTKLSKCKGTDDEAVETNNELYEQLLELIRINHGLLVSIGVSHPGLELIKNLSDDLRIGSTKLTGAGGGGCSLTLLRRDITQEQIDSFKKKLQDDFSYETFETDLGGTGCCLLSAKNLNKDLKIKSLVFQLFENKTTTKQQIDDLLLPGNTNLPWTS
notes: His-tag (N); made in house; host or cells: E. coli BL21(DE3)
[12]
  Km: 464 ± 7.6 µM
